Measurements: article PMC4150794

Key:
[1] = system: RBPMS2-Nter (Homo sapiens); assay: EMSA; details: theoretical Kd, cooperative fit; 100 nM RNA; second complex at 5 uM; EMSA: 20 mM Tris pH 7.4, 100 mM KCl, 1 mM EDTA, 10 ug/ml BSA, 1 mM DTT, 1 U/ul RNaseOUT, 2% glycerol, 20 C 30 min, 10% gel in 1X TBE at 4 C; anisotropy: 20 mM …
[2] = system: Q6ZRY4; assay: SEC-MALS; Superdex 75 10/300, 20 mM Tris-HCl pH 8, 300 mM NaCl; loaded at 2 mg/ml (RBPMS2-Nter) or 4 mg/ml (RBPMS2-Nter-L49E); monomer to dimer

161-nt NOGGIN RNA
Kd [1]: 2250 nM

RBPMS2-Nter-L49E (human RBPMS2 residues 27-117 with L49E)
percent of the protein in the monomer peak [2]: The majority species (92.4%) has a Mw of 10.6 kDa, as would be expected for the monomer
